Assay results: patent US20250035633A1 (published 2025)
Like-named read-outs stand apart in the source and are kept apart here.

Assays:
[1] = target: T1, recombinant CDH17-hFc (human, UniProt Q12864 23-787); assay: ELISA
[2] = target: T1, recombinant CDH17-hFc; assay: OCTET BLI
[3] = target: T1, recombinant CDH17-hFc; assay: ELISA; remark: listed apart in the source
[4] = target: T1, recombinant CDH17-hFc; assay: OCTET BLI; remark: listed apart in the source

T1 sequence (Q12864 23-787): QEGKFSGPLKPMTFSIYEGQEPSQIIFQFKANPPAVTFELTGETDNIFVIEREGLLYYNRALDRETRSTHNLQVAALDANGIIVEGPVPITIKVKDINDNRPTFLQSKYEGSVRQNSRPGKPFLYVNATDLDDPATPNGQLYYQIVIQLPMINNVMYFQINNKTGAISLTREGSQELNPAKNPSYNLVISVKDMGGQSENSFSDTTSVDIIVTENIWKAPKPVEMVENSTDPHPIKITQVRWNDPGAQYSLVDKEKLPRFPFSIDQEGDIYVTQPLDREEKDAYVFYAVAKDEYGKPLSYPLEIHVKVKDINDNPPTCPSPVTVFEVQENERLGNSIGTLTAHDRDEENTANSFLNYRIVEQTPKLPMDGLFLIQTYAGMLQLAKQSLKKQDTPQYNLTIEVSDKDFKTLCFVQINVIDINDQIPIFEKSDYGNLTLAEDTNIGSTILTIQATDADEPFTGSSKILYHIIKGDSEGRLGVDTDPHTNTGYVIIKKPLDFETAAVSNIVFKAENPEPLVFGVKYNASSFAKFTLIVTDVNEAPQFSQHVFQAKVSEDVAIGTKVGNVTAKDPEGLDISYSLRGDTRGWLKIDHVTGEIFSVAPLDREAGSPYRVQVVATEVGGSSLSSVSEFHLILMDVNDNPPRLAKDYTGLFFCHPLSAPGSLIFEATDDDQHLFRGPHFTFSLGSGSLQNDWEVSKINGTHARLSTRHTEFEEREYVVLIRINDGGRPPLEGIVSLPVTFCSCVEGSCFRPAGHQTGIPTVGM

EC50 [1]	Kd [2]	EC50 [3]	Kd [4]	Binder
7.9 ng/mL	10.9 nM			mLic3 (antibody, V domains shown) VH: EVQLVESGGGLVKPGGSLKLSCAASGFSFSDYYMYWVRQAPEKRLEWVASISFDGTYTYYTDRVKGRFTISRDNAKNNLYLQMSSLKSEDTAMYYCARDRPAWFPYWGQGTLVTVSA VL: DVLMTQIPLSLTVSLGDQASISCRSSQSIVHSNGNTYLEWYLQRPGQSPKLLIYKVSNRFSGVPDRFSGSGSGTDFTLKISRVEAEDLGVYYCFQGSHVPLTFGAGTKLELK
		4.2 ng/mL	20.6 nM	m7C5 (antibody, V domains shown) VH: QVQLQQSGAELARPGASVKLSCKASGYTFTSYGLSWVKQRTGQGLEWIGEIFPRSGNSYYNEKFKGKAALTADKSSSTAYMQLSSLTSEDSAVYFCARHYYSSLYYAMDYWGQGTSVTVSS VL: DIQVTQSPASLSASVGESVSITCGTNENLYGALNWYQRKQGKSPQLLIYGATNLADGMSSRFSGSGSGRQYSLKISSLHPDDVATYYCQNVLSTPRTFGGGTKLEIK
